In patent publication US20230272070A1 (published 2023):
Residue numbers refer to the chain shown, from its start. Blank lines part the entries; values can stand above or below the binder they belong to.

Target: T1, human CD19 (human, UniProt P15391 20-556)
T1 construct: whole, on cells; also called huCD19
T1 sequence (looked up): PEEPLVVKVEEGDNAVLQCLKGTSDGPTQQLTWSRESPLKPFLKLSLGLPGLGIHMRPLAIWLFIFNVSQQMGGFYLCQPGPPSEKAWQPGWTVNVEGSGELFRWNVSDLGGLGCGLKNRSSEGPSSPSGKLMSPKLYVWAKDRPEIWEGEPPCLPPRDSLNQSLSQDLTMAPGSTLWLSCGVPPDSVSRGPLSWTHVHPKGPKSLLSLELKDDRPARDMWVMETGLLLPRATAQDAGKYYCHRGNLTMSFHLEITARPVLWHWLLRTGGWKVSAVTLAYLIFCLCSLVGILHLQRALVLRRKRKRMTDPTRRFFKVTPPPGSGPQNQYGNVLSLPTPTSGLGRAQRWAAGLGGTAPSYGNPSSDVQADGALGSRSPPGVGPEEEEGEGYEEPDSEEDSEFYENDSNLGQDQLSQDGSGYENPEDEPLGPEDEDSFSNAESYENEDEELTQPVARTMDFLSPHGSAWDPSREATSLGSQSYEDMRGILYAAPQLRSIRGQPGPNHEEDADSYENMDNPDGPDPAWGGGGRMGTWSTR
Test: flow cytometry on human versus cynomolgus PBMC; reference: binding to cynomolgus PBMC
Procedure: The ability of various anti-CD19 antibodies of the disclosure to bind various peripheral blood mononuclear cells (PBMC). Human and cynomolgus PBMC from frozen aliquots in citrate buffer were tested. […] The PBMC were labelled with anti-CD20-PE monoclonal antibody (mAb), anti-CD14-FITC mAb, and anti-CD3-PerCP mAb cross-reactive both to human and cynomolgus species. Cell surface bound hIgG1 were detected with a mouse anti-human IgG Fc-APC mAb. FACS gating was performed with the anti-CD20 mAb for the B lymphocyte population, with the anti-CD3 for the T lymphocyte population and with anti-CD14 for the monocyte population.

B3: 7F1 antibody (antibody, human IgG1, V domains shown)
VH: EVQLVQSGAEVKKPGESLKISCKGSGYSFTSYWIGWVRQMPGKGLEWMGIIYPGDSDTRYSPSFQGQVTISADKSISTAYLQWSSLKASDTAMYYCARGDYWTGFAYWGQGTLVTVSS
VL: QSVLTQPPSVSAAPGQKVTISCSGSSSNIGNNYVSWYQQLPGTAPKLLIYDNNKRPSGIPDRFSGSKSGTSATLGITGLQTGDEADYYCGTWDLGWNSVFGGGTKLTVL
notes: Tested as human IgG1; also called human IgG1 7F1 anti-CD19 antibody
fold higher binding on human than on cynomolgus PBMC: ≤ 10 fold

B4: 9G8 antibody (antibody, human IgG1, V domains shown)
VH: EVQLVQSGAEVKKPGESLKISCKGSGYSFTSYWIGWVRQMPGKGLEWMGIIYPGDSDTRYSPSFQGQVTISADKSISTAYLQWSSLKASDTAMYYCARGVSGIYNLHGFDIWGQGTLVTVSS
VL: DIQMTQSPSSLSASVGDRVTITCRASQSISSYLNWYQQKPGKAPKLLIYAASSLQSGVPSRFSGSGSGTDFTLTISSLQPEDFATYYCQQGRFGSPFTFGQGTKVEIK
notes: also called human IgG1 9G8 anti-CD19 antibody
fold higher binding on human than on cynomolgus PBMC: ≤ 10 fold

More lines, now with the values ahead:

fold higher binding on human than on cynomolgus PBMC: ≤ 10 fold
B1: F6 antibody (antibody, human IgG1, V domains shown)
VH: EVQLVQSGAEVKKPGESLKISCKGSGYSFTSYWIGWVRQMPGKGLEWMGIIYPGDSDTRYSPSFQGQVTISADKSISTAYLQWSSLKASDTAMYYCARVWYYDFWSGADAFDIWGQGTLVTVSS
VL: EIVMTQSPATLSVSPGERATLSCRASQSVSSNLAWYQQKPGQAPRLLIYGASTRATGIPARFSGSGSGTEFTLTISSLQSEDFAVYYCQQGSLEAPQTFGQGTKVEIK
notes: Tested as human IgG1; also called human IgG1 F6 anti-CD19 antibody

fold higher binding on human than on cynomolgus PBMC: ≤ 10 fold
B2: 10D8 antibody (antibody, human IgG1, V domains shown)
VH: QVQLVQSGAEVKKPGSSVKVSCKASGGTFSSYAISWVRQAPGQGLEWMGGIIPIFGTANYAQKFQGRVTITADESTSTAYMELSSLRSEDTAVYYCARDRGYDYVWGSYRYGAFDIWGQGTLVTVSS
VL: QSALTQPASVSGSPGQSITISCTGTSSDVGGYNYVSWYQQHPGKAPKLMIYEVSNRPSGVSNRFSGSKSGNTASLTISGLQAEDEADYYCSSYDVWVPHMVFGGGTKLTVL
notes: Tested as human IgG1; also called human IgG1 10D8 anti-CD19 antibody

fold higher binding on human than on cynomolgus PBMC: ≤ 10 fold
B5: 7F11 antibody (antibody, human IgG1, V domains shown)
VH: B4 VH
VL: B4 VL with R92M, F93W, G94D, S95N
notes: Tested as human IgG1; also called human IgG1 7F11 anti-CD19 antibody

fold higher binding on human than on cynomolgus PBMC: ≤ 10 fold
B6: 5F5 antibody (antibody, human IgG1, V domains shown)
VH: B4 VH with V100I
VL: B4 VL with G91A, R92S, F93L, G94D, F97L
notes: Tested as human IgG1; also called human IgG1 5F5 anti-CD19 antibody
